pKd: −log10 of the molar value.
Target: VAPB-MSP domain, MSP(1–125) (human) (UniProt O95292)
Experiment: NMR titration; 1H-15N HSQC of 15N-labelled VAPB protein (50 uM) with unlabelled NS5B or Eph protein added at different molar ratios (increment 0.5 for C-linker and Eph); 10 mM phosphate buffer pH 6.8, 25 C, 800 MHz; CSD tracings fitted with a one binding site model for residue-specific Kd

UniProt O95292, sequence (O95292 1-125): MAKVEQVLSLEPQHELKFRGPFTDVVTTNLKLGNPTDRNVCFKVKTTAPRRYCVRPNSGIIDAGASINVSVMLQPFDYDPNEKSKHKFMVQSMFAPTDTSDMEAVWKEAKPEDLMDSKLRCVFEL

For NS5B C-linker peptide (531–570), the pKd was 5.06, the residue-specific Kd (MSP residue 53C) was 1.4 µM and the residue-specific Kd (MSP residue 79D) was 13.6 µM. The residue-specific Kd (MSP residue 82E) was 12.8 µM, the residue-specific Kd (MSP residue 90V) was 9 µM and the residue-specific Kd (MSP residue 116D) was 5.7 µM. For the same substance, the residue-specific Kd (MSP residue 118K) was 2.9 µM and the residue-specific Kd (MSP residue 119L) was 16 µM.

Reference: PMC4718513
